Measured values: patent publication US10561709B2, “Methods and compositions of neuregulins for preventing, treating or delaying preserved ejection fraction cardiac failure” (Zensun (Shanghai) Science & Technology, Co., Ltd., priority 2014, dated 2020)

What was measured:
[1] = tested on: SHR hypertensive rats with heart failure; test: Hemodynamic measurement in hypertensive heart failure rats; format: in vivo, rat; settings: captopril 10 mg/kg intragastric 2 times a day; for MAP / −dp/dt: hypertensive heart failure rats, after 3 treatment cycles, rhNRG 6.5 ug/kg i.v. once a day 5 days on/2 days off
Experimental: (§1) The study is on the therapeutic effect of recombinant human neuregulin (rhNRG) in SHR hypertensive rats with heart failure. Methods: SHR hypertensive rat strains, normal feeding, monitoring changes of cardiac function during feeding. […] Hypertensive heart failure rats were randomly divided into negative control group, NRG treatment group and captopril treatment group. rhNRG was administered continuously for 5 days, withdrawing for 2 days in a treatment cycle, NRG group received 3 treatment cycles. At the end of the second and third treatment cycle, each group of rats was examined by echocardiography to determine the cardiac function changes. After the third treatment cycle, hemodynamics of the rats were detected.
(§2) The SHR hypertensive rat strains, normal feeding, and monitoring the cardiac function changes during the feeding.
After the model was successfully established, the rats were randomly divided into negative control group, NRG treatment group and captopril treatment group. RhNRG was administered intravenously, with a dose of 6.5 ug/kg, once a day, 5 days of continuous administration and 2 days of drug withdraw period as a treatment cycle. A total of 3 treatment cycles were administered. At the same time, the NRG group was given drinking water by intragastric administration two times a day. Captopril was administrated 10 mg/kg by intragastric administration, 2 times a day, continuous administration. NRG excipient was administrated by tail vein injection for 3 treatment cycles. The negative control group were given drinking water by intragastric administration and given NRG excipients by tail vein injection.
At the end of the third treatment cycle, the rats were anesthetized with 3% pentobarbital by intraperitoneal injection. Median incision was made in the neck, the left common carotid artery was isolated and intubated, and the arterial and left ventricular hemodynamic parameters were measured.

[2] = tested on: patients with heart failure with preserved ejection fraction; test: Mitral valve flow spectrum of two-dimensional echocardiography, preliminary clinical trial; format: in vivo, human
Experimental: To evaluate the effect of recombinant human neuregulin on cardiac function of patients with heart failure with preserved ejection fraction, the preliminary clinical trial was carried out in the Sixth People's Hospital Affiliated to Shanghai Jiao Tong University, which comprises 2 patients in the placebo group and 2 patients in the experiment group.
1.1 left ventricular ejection fraction (LVEF) ≥50% (two-dimensional echocardiography diagnosis);
1.2 New York heart function (NYHA) II or III level;
4. Data collection: Mitral valve flow spectrum of two-dimensional echocardiography was detected during the screening period, 11-13 d and 30 d.

[3] = tested on: SHR hypertensive rats with heart failure; test: Echocardiography examination in hypertensive heart failure rats; format: in vivo, rat; settings: rhNRG 6.5 ug/kg, after 2 cycles or 3 cycles of treatment
Experimental: as §1, §2
After the model was successfully established, the rats were randomly divided into negative control group, NRG treatment group and captopril treatment group. RhNRG was administered intravenously, with a dose of 6.5 ug/kg, once a day, 5 days of continuous administration and 2 days of drug withdraw period as a treatment cycle. A total of 3 treatment cycles were administered. At the same time, the NRG group was given drinking water by intragastric administration two times a day. […]

[4] = patient 8003, 0.3 ug/kg/day i.v. drip 10 hours a day for 10 days, 11-13 d
[5] = patient 8003, 0.3 ug/kg/day i.v. drip 10 hours a day for 10 days, 30 d
[6] = patient 8003, 0.3 ug/kg/day i.v. drip 10 hours a day for 10 days, screening period (before treatment)
[7] = patient 8004, 0.3 ug/kg/day i.v. drip 10 hours a day for 10 days, 11-13 d
[8] = patient 8004, 0.3 ug/kg/day i.v. drip 10 hours a day for 10 days, 30 d
[9] = patient 8004, 0.3 ug/kg/day i.v. drip 10 hours a day for 10 days, screening period (before treatment)

In the case of `C[C@H](CS)C(=O)N1CCC[C@H]1C(=O)O` [captopril, reference compound], the MAP [1] is reported as 139.9 ± 24.8, the “−dp/dt” value [1] is reported as −5441.2 ± 1007.3 and the blood pressure ([1]; hypertensive rats, vs 216.5±23.2 and 228.0±26.0 in the other groups (p=0.029, p=0.017)) is reported as 174.5±33.0.

B1: NRG: Recombinant human neuregulin, Neucardin™, 61 amino acids, produced by Shanghai Zensun Sci & Tech Co., Ltd. (protein)
chain: SHLVKCAEKEKTFCVNGGECFMVKDLSNPSRYLCKCPNEFTGDRCQNYVMASFYKAEELYQ
modifications: homo sapiens
B1 was tested, and the DT [2, 4] was 203.7 ms, the IVRT [2, 4] was 340.1 ms and the DT [2, 5] was 179.5 ms. For the same molecule, the IVRT [2, 5] was 345 ms, the DT [2, 6] was 229.08 ms and the IVRT [2, 6] was 374.31 ms. It also gave a DT [2, 7] of 256.15 ms, an IVRT [2, 7] of 609.28 ms and a DT [2, 8] of 255.14 ms. For the same molecule, the IVRT [2, 8] was 499.08 ms, the DT [2, 9] was 262.28 ms and the IVRT [2, 9] was 621.07 ms. For the same molecule, the “IVRT and DT values, change over the trial” value ([2]; patients administered with NRG 0.3 ug/kg/day, versus placebo patients whose values gradually increased) was “significantly decreased”, the MAP [1] was 182.5 ± 18.8 and the “−dp/dt” value [1] was −7467.6±715.8. For the same molecule, the “left ventricular end diastolic and end systolic volume” value [3] was “prevent further left ventricular end diastolic and end systolic volume enlargement”.
